US20200352996A1

Biological target: Tissue factor (TF) on human TNBC line MDA-MB-231 cells (human) (UniProt P13726)
Experiment: cell-based or functional assay

UniProt P13726, sequence (P13726 33-295): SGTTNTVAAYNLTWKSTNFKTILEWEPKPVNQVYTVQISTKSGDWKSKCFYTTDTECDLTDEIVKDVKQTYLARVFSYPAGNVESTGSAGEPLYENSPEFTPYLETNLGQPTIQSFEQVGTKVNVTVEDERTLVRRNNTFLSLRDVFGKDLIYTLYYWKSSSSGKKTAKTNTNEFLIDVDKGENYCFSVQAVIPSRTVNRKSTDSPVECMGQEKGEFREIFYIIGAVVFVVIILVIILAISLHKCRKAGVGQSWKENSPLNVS

Work on “TF-targeting CAR1 monomer (hfVIIL-CD28-4-1BB-CD3zeta), expressed on NK92MI/fCD16 cells (from UniProt P10747 153-220; Q07011 214-255; P20963 52-164)” yielded a cytotoxicity to TNBC cells (CytoTox Homogenous Assay, E:T ratio of 10:1) of 77%.
